Experimental data: patent US12459997B2, “Compounds and methods targeting interleukin-19” (Eli Lilly and Company, priority 2018, dated 2025)

Tests used:
recombinant human IL-19 [1] = biological target: T1, recombinant human IL-19 (Homo sapiens, UniProt Q9UHD0); experiment: Bio-layer interferometry (BLI) binding kinetics and affinity (Octet Red96); details: 25° C.; 1:1 binding model
T1 sequence (Q9UHD0 25-177): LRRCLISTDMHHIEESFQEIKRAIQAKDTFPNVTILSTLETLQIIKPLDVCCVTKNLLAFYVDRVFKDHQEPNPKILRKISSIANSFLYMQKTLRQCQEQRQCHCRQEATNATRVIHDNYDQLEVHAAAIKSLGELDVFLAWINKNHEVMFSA
Procedure: Bio-layer interferometry (BLI) assay, measured with a Octet Red96® instrument available from ForteBio (using HBS-EP+ running buffer (GE Healthcare, 10 mM Hepes pH7.4+150 mM NaCl+3 mM EDTA+0.05% surfactant P20) at 25° C.), is used to measure binding of the exemplified IL-19 antibodies of the present invention to recombinant human IL-19 (having the amino acid sequence set for in SEQ ID NO: 1).
Except as noted, all reagents and materials are from ForteBio (Freemont, Calif.). An AMQ biosensor is used to immobilize antibody of interest for analysis. […] Recombinant human IL-19 is prepared to concentrations of 270, 90, 30, 10, 3.33, 1.11, 0.370, and 0 (blank) nM by dilution into running buffer. Each analysis consists of: (1) capturing antibody samples on biosensors for 300 secs; (2) establishing a baseline by incubating antibody loaded biosensors with running buffer for 60 secs; (3) incubating antibody loaded biosensors with serially diluted recombinant human IL-19 for 300 secs to monitor association phase; (4) return of biosensor to running buffer to monitor dissociation phase.
Binding data is processed using standard double-referencing and fit to a 1:1 binding model using Data Analysis v9.0 evaluation software, to determine the association rate (kon, M^−1 s^−1 units), dissociation rate (koff, s^−1 units), and Rmax (nm units). The equilibrium dissociation constant (KD) was calculated from the relationship KD=koff/kon, and is in molar units.

recombinant human IL-19 [2] = biological target: T1, recombinant human IL-19; experiment: HDX-MS epitope mapping; format: binding; details: IL-19:antibody molar ratio 1:1.2
Procedure: Briefly, HDX-MS is performed on a Waters nanoACQUITY system with HDX technology, including a LEAP HDX robotic liquid handling system and mass analysis is performed on a Waters Xevo G2-Tof mass spectrometer. […] The deuterium exchange experiment is initiated adding 55 uL of D2O buffer containing 0.1×PBS to 5 ul of human IL-19 or the human IL-19/antibody complex at 15° C. for various amounts of time (0 s, 10 s, 1 min, 10 min, 60 min, 120/240 min). The reaction is quenched using equal volume of was 0.32M TCEP, 0.1M phosphate pH 2.5 for two minutes at 1° C. 50 μL of the quenched reaction is injected on to an on-line pepsin column (Waters BEH Enzymate) at 14° C., using 0.2% formic acid in water as the mobile phase at a flow rate of 100 μL/min for 4 min. The resulting peptic peptides are then separated on a C18 column (Waters, Acquity UPLC BEH C18, 1.7 m, 1.0 mm×50 mm) fit with a Vanguard trap column using a 3 to 85% acetonitrile (containing 0.2% formic acid) gradient over 10 min at a flow rate of 50 L/min. The separated peptides are directed into a Waters Xevo G2 time-of-flight (qTOF) mass spectrometer. […] The relative deuterium incorporation for each peptide is determined by processing the MS data for deuterated samples along with the non-deuterated control in DynamX.

[3] = biological target: T2, human IL-19 / human IL-20R beta Fc-fusion protein (Homo sapiens, UniProt Q9UHD0); experiment: BLI in vitro neutralization: IL-19 captured by antibody, then incubated with IL-20R beta Fc; details: block of IL-19 binding to soluble receptor
T2 sequence (Q9UHD0 25-177): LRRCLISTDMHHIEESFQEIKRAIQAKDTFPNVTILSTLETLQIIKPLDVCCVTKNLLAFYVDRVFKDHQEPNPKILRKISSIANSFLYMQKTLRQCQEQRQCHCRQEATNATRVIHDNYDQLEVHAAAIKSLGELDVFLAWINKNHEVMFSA
Source text: Alternatively, a biophysical assay such as bio-layer interferometry (BLI) may be used for assessing neutralization of IL-19 by antibodies of the present invention. Binding between a ligand immobilized on the biosensor tip surface and an analyte in solution produces an increase in optical thickness at the biosensor tip, which results in a wavelength shift (expressed in nm). According to such assay, the IL-19 receptor (i.e., […]) is expressed in a membrane-free manner (such as with an Fc-fusion e.g. IL20Rbeta Fc chimera protein from R&D Systems catalog 1788-IR-050). […] The immobilized antibodies are then incubated with recombinant human IL-19 protein diluted to 100 nM using HBS-EP+ running buffer (GE Healthcare, 10 mM Hepes pH7.4+150 mM NaCl+3 mM EDTA+0.05% surfactant P20) for 240-300 secs. The human IL-19, after binding to the anti-IL-19 antibody, is assessed by incubation with human IL-20R beta Fc-fusion protein for 240-300 secs. The ability of the antibody to block or neutralize binding of the IL-19 ligand to the soluble receptor is observed as a minimal (<0.025 nm) increase in the wavelength during this step of the assay.

B1: R_39: rabbit-derived IL-19 antibody; LC SEQ ID NO: 310, HC SEQ ID NO: 311 (antibody)
heavy: QEQLKESGGGLVQPGGSLKLSCKASGFDLSSYGVSWVRQAPGKGLEWIGYIDPVFGSTYYANWVNGRFTISSDNAQNTLYLQLNSLTAADTATYFCARGSGYVYYGYTYDLWGPGTLVTVSSGQPKAPSVFPLAPCCGDTPSSTVTLGCLVKGYLPEPVTVTWNSGTLTNGVRTFPSVRQSSGLYSLSSVVSVTSSSQPVTCNVAHPATNTKVDKTVAPSTCSKPTCPPPELLGGPSVFIFPPKPKDTLMISRTPEVTCVVVDVSQDDPEVQFTWYINNEQVRTARPPLREQQFNSTIRVVSTLPIAHQDWLRGKEFKCKVHNKALPAPIEKTISKARGQPLEPKVYTMGPPREELSSRSVSLTCMINGFYPSDISVEWEKNGKAEDNYKTTPAVLDSDGSYFLYSKLSVPTSEWQRGDVFTCSVMHEALHNHYTQKSISRSPGK
light: DIVMTQTPASVEAAVGGTVTIKCQASQSIYRYLSWYQQKPGQRPKLLIYGASNLASGVSSRFKGSGSGTEFTLTISDLECADAATYYCQSYYYSSSSGYGNVFGGGTEVVVKGDPVAPTVLIFPPAADQVATGTVTIVCVANKYFPDVTVTWEVDGTTQTTGIENSKTPQNSADCTYNLSSTLTLTSTQYNSHKEYTCKVTQGTTSVVQSFNRGDC
Which results are given for B1?
kon (recombinant human IL-19 [1]): 206000 M⁻¹ s⁻¹; residues of SEQ ID NO. 1 with decreased deuterium uptake in complex with antibody (epitope region) (recombinant human IL-19 [2]): residues 42-60 ([…]), 90-107 ([…]), and 149-160 ([…]); Neutralization [3]: Yes (minimal (<0.025 nm) increase in the wavelength)
